Results from PMC6141617 (2018).

B1: 14-3-3β (purified alone) (natural protein)
chain: MTMDKSELVQKAKLAEQAERYDDMAAAMKAVTEQGHELSNEERNLLSVAYKNVVGARRSSWRVISSIEQKTERNEKKQQMGKEYREKIEAELQDICNDVLELLDKYLIPNATQPESKVFYLKMKGDYFRYLSEVASGDNKQTTVSNSQQAYQEAFEISKKEMQPTHPIRLGLALNFSVFYYEILNSPEKACSLAKTAFDEAIAELDTLNEESYKDSTLIMQLLRDNLTLWTSENQGDEG

Legend:
GFP-ExoS^419-453 = assay: FP
14-3-3β (purified alone) = molecular target: B1; assay: FP

| Binder | Kd (GFP-ExoS^419-453) [nM] | Kd (14-3-3β (purified alone)) [nM] |
| --- | --- | --- |
| B1 | ~370 |  |
| GFP-ExoS^233–419 (domain or fragment) ADKALADGLVKRFGADAEKYLGRQPGGIHSDAEVMALGLYTGIHYADLNRALRQGQELDAGQKLIDQGMSAAFEKSGQAEQVVKTFRGTRGGDAFNAVEEGKVGHDDGYLSTSLNPGVARSFGQGTISTVFGRSGIDVSGISNYKNEKEILYNKETDMRVLLSASDEQGVTRRVLEEAALGEQSGHS |  | > 100 |
